Data from patent publication US20200277405A1, “COMPOSITION FOR ANTIBODY-DRUG CONJUGATE DIRECTED AGAINST TUMOR-CELL ASSOCIATED POLYSIALIC ACID” (Cornell University, priority 2019, published 2020).
Blank lines part the entries; values can stand above or below the molecule they belong to.

Columns and labels:
[1] = test system: polySia expressed on the surface of different cancer cell lines; assay: Flow cytometric analysis of antibody binding to cancer cell lines; format: cell-based, human
Source text: FIGS. 6A-6D depict immunostaining of antibody ch735 to polySia-expressing cancer cells. […] Data are the geometric mean fluorescence intensity (MFI), with the values reported as the average of three replicates and the error represented as the standard deviation of the mean. […] Cells were stained with ch735, wheat germ agglutinin (WGA) to stain the cell membrane, and Hoescht to stain nuclei. Scale bars, 10 μm. […] Scale bars, 200 μm.
FIGS. 7A-7B depict binding of antibody ch735 and mo735 to polySia-expressing cancer cells. Representative fluorescence histograms for ch735 (FIG. 7A) and mo735 (FIG. 7B) binding to a panel of cancer cell lines measured by flow cytometry are shown. Histograms represent antibody binding to untreated cells, antibody binding to endoN-treated cells, and anti-human or anti-mouse secondary only control, respectively.
FIGS. 9A-9B depict binding of antibody mo735 to polySia-expressing cancer cells. […] Data are the geometric mean fluorescence intensity (MFI), with the values reported as the average of three replicates and the error represented as the standard deviation of the mean. […] Cells were stained with ch735, wheat germ agglutinin (WGA), and nuclei were stained with Hoescht. Scale bars, 10 μm.
Cancer cells were trypsinized and collected with media, followed by three washes in PBS. To remove polySia, cells were treated with endoN at 3 μg/mL in PBS for 1 h at room temperature. The cells are resuspended in 4% paraformaldehyde (PFA), fixed at room temperature with constant agitation for 10 min, and then washed two times with PBS, and two times with 0.5% BSA in PBS. The cells were collected and resuspended to 1 million cells/100 μL and pipetted into a round bottom 96-well plate. The cells were pelleted in the 96-well plate and resuspended in 0.5% BSA in PBS containing mo735 or ch735 (5 μg/mL) and incubated for 30 min at room temperature with constant agitation. Cells were washed three times with 0.5% BSA in PBS and resuspended in anti-mouse IgG-Alexa-Fluor 488 (AF488) secondary or anti-human IgG-AF488 secondary (ThermoFisher Scientific) at a 1:200 dilution for 30 min at room temperature in the dark with constant agitation. Cells were washed three times, resuspended in 500 μL of 0.5% BSA in PBS, and analyzed on a BD FACSCalibur flow cytometer using Cell Quest Pro software (BD Biosciences).

[2] = test system: chicken brain-derived polysialylated neural cell adhesion molecule (NCAM); assay: ELISA with immobilized NCAM; format: binding
Procedure: (§1) FIGS. 2A-2D depict binding specificity and affinity of the ch735 antibody. […] ELISA signals (Abs370) were obtained with anti-human IgG secondary antibodies. […] Antibodies were assayed at 1 μg/mL and detected with anti-human IgG secondary antibodies. […] Antibodies were assayed at 10 μg/mL and detected with anti-mouse IgG secondary antibodies.
as §1, with “3A-3D” for “2A-2D”, “mo735” for “the ch735”, “anti-mouse” for “anti-human”
Costar 96-well ELISA plates (Corning) were coated overnight at 4° C. with 50 μl of 1 μg/mL chicken brain NCAM (Millipore) or endoN-treated NCAM in PBS. Chicken NCAM (Millipore, AG265) was digested with 1.5 μg of endoN per 50 μg of NCAM overnight at 37° C. After blocking with 5% (w/v) milk in PBS for 1-3 h at room temperature or overnight at 4° C., ELISA plates were washed three times with wash buffer (PBST with 0.3% BSA) and incubated with serially diluted purified ch735, mo735 (Absolute Antibody), or ab5032 (Millipore) for 1 h at room temperature. Antibody samples were quantified with a Nanodrop. […]

polysialylated NCAM = assay: SPR (Biacore) equilibrium binding to NCAM; design: species or system chicken; conditions: antibody on Protein A sensor chip; NCAM 0.25-250 nM; Hill slope analysis in Prism
Procedure: FIGS. 5A-5D depict binding affinity analysis of mo735 and ch735 antibodies. Binding kinetics for the mo735 and ch735 antibodies were monitored using Biacore. Commercial mo735 or recombinant purified ch735 was immobilized at low concentrations on a Biacore Protein A sensor chip and the response to different concentrations of NCAM (ranging from 0.25-250 nM) was compared with an empty flow cell. FIGS. 5A-5B depicts representative sensorgram data for mo735 (FIG. 5A) and ch735 (FIG. 5B).
Equilibrium binding-affinity measurements were made by SPR analysis on a Biacore 3000 system. Antibodies mo735 and ch735 were bound to the surface of a Protein A sensor chip with a target level of 1700 response units (RUs). Serial dilutions of the antigen, chicken NCAM, prepared in 10 mM HEPES, pH 7.4, 150 mM NaCl, 3 mM EDTA, 0.005% polysorbate-20 (HBS-EP buffer, GE Healthcare) at concentrations ranging from 0.25 to 250 nM were injected over the chip using the same buffer at a flow rate of 20 μl/min (10 min injection time, 2 min stabilization time, 20 min dissociation). The surface of the chip was regenerated between the injections of each serial dilution with 10 mM glycine, pH 1.5 (30 sec injection time, 3 min stabilization time). Kinetic parameters were determined by fitting the maximum response values for each concentration using the Hill slope non-linear regression analysis in Prism software.

[3] = CFG glycan microarray specificity profiling; format: binding; conditions: for glycan specificity from microarrays: CFG glycan array (v5.3 mo735, v5.4 ch735) and glycoprotein array
Procedure: as §1
as §1, with “3A-3D” for “2A-2D”, “mo735” for “the ch735”, “anti-mouse” for “anti-human”
Specificity of mo735 and ch735 was determined using printed glycan arrays 5.3 and 5.4 at the CFG. Both antibodies were analyzed at 10 μg/mL with 5 μg/mL of anti-mouse or anti-human Alexa-Fluor 647 (AF647)-conjugated secondary, respectively. Specificity of mo735 (1 μg/mL) and ch735 (10 μg/mL) was also assessed on a custom glycoprotein array that contained ˜40-50 glycoproteins including chicken brain NCAM and endoN-treated chicken brain NCAM.

[4] = CFG microarray version 5.4, 10 μg/mL

Kd (polysialylated NCAM): 10.2 nM
B1: mo735: well-known mouse-derived IgG2a monoclonal antibody 735 targeting polysialic acid (antibody, V domains shown)
VH: QIQLQQSGPELVRPGASVKISCKASGYTFTDYYIHWVKQRPGEGLEWIGWIYPGSGNTKYNEKFKGKATLTVDTSSSTAYMQLSSLTSEDSAVYFCARGGKFAMDYWGQGTSVTVSS
VL: DVVMTQTPLSLPVSLGDQASISCRSSQSLVHSNGNTYLYWYLQKPGQSPKPLIYRVSNRFSGVPDRFSGSGSGTDFTLKISRVEAEDLGVYFCFQGTHVPYTFGGGTRLEIK
polySia binding on panel of cell lines compared with ch735 ([1]; staining of each of the cell lines): Identical polySia binding results
ELISA binding to NCAM [2]: specifically recognize polySia
glycan specificity from microarrays [3]: Nearly identical results

Kd (polysialylated NCAM): 4.79 nM
glycan array binding to glycans #225 and 226 [3, 4]: not
glycan array binding to tetra-sialic acid glycan Chart ID #223 [3, 4]: strong preference
B2: ch735: chimeric human IgG1 polySia-specific mAb made by swapping variable regions of mouse mAb 735 (antibody, V domains shown)
VH: B1 VH
VL: B1 VL
surface binding by flow cytometry ([1]; A549 and MCF7 cells): No significant binding above background
surface binding by flow cytometry ([1]; NCI-H69, NCI-H82 and SH-SY5Y cells): lower intensity
surface binding by flow cytometry ([1]; SKOV3 and K562 cells): not recognized
surface binding by flow cytometry ([1]; SW2 cells): bound most avidly
surface binding following endoN treatment ([1]; polySia-positive cell lines, endoN-treated): lack of surface binding
ELISA binding to NCAM [2]: specifically recognize polySia
glycan specificity from microarrays [3]: α2,8-linked sialic acid with a degree of polymerization (DP) of three or greater
glycan array binding to glycan Chart ID #224 [3, 4]: lesser but still significant level of binding above background
